Our source for the binding result and Kd values is PMC6386705.

The target of data set [1] is T1, HuR RRM3 (human, UniProt Q15717 241-326). Put plainly: NMR.
Data set [2] concerns the target T1, HuR RRM3. Kind of data set: NMR. This is another data set of the same source.
Data set [3] deals with T1, HuR RRM3. Put plainly: ITC. On the technique in general: In ITC the heat of successive injections is recorded.
For data set [4], the target named is T1, HuR RRM3. Kind of data set: ITC. This is another data set of the same source.
Data set [5] concerns the target T2, HuR RRM3 W261E (human, UniProt Q15717 241-326, W261E). Put plainly: ITC.
In data set [6] the target is T1, HuR RRM3. Kind of data set: ITC. This is another data set of the same source.
Data set [7] concerns the target T1, HuR RRM3. Put plainly: ITC. This is another data set of the same source.
In data set [8] the target is HuR RRM12 (human, UniProt Q15717 2-189). Kind of data set: ITC.
HuR RRM12, sequence (Q15717 2-189): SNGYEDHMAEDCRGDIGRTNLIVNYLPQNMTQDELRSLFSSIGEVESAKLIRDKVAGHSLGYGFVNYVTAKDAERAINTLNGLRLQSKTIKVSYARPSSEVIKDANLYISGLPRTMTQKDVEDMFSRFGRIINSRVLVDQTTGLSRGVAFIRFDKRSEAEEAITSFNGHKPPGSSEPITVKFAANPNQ
The target in data set [9] is HuR RRM3 FY (human, UniProt Q15717 241-326, F247A;Y249A). Kind of data set: NMR.
HuR RRM3 FY, sequence (Q15717 241-326 F247A/Y249A): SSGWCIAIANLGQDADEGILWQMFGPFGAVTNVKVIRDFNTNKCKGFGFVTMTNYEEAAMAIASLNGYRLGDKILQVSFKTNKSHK
The target of data set [10] is T2, HuR RRM3 W261E. Put plainly: NMR.
Data set [11] addresses T1, HuR RRM3. Kind of data set: ITC. The source holds these as a separate data set.
Data set [12] addresses T1, HuR RRM3. Kind of data set: NMR. This is another data set of the same source.

Read-outs that look alike come from different tables or passages of the source.

T1 sequence (Q15717 241-326): as the sequence (Q15717 241-326 F247A/Y249A) above, with A7F, A9Y counted along it
T2 sequence (Q15717 241-326 W261E): as the sequence (Q15717 241-326 F247A/Y249A) above, with A7F, A9Y, W21E counted along it

Turning to AUUUU (ssRNA), the binding result in [1] is “binds”. UUUUA (ssRNA): the binding result in [1] is “binds”. As for UUUUU (ssRNA), in data set [2], the binding result was “binds”. With UUAUU (ssRNA), the binding result in data set [1] is “binds”. Regarding AUUUUU (ssRNA), binding in [3] was characterised by a dissociation constant (Kd) of 4.03 ± 0.25 µM. UUUUUU (ssRNA): in data set [4], binding was characterised by a dissociation constant (Kd) of 3.58 ± 0.21 µM. Further, in [5], the binding result is on record as “binds”. On to UUUAUU (ssRNA), for which binding in data set [6] was characterised by a dissociation constant (Kd) of 5.6 ± 0.4 µM. For AUUAUU (ssRNA), the Kd – broadly, the free concentration of one partner at which half of the binding sites on the other are occupied at equilibrium, for simple one-to-one binding – in [7] is 5.75 ± 0.27 µM.

In the case of AUUUUUAUUUU (ssRNA) [c-fos ARE 11-mer], the Kd in [8] came out at 140 nM; in [11], 650 nM. Further, the binding result in data set [9] is given as “no binding”; in data set [10], “binds”. Regarding AUUAU (ssRNA), the binding result in [12] was “binds”.
